The target of the test is T1, Tsa1^WT-HA (peroxiredoxin Tsa1, single C-terminal HA tag at the endogenous locus) (S. cerevisiae, UniProt P34760 1-196).
T1 sequence (looked up): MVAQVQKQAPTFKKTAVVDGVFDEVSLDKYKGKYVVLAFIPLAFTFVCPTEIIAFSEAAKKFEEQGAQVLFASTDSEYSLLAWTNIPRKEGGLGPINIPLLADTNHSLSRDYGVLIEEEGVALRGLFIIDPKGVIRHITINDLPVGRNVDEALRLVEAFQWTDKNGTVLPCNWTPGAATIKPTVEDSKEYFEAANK
Kind of test: in vitro thioredoxin reaction, non-reducing SDS-PAGE with immunoblot.

B1: recombinant Trx1-HIS (enzyme, S. cerevisiae, UniProt P22217 1-103, looked up)
chain: MVTQFKTASEFDSAIAQDKLVVVDFYATWCGPCKMIAPMIEKFSEQYPQADFYKLDVDELGDVAQKNEVSAMPTLLLFKNGKEVAKVVGANPAAIKQAIAANA
Turning to B1, the binding result is “binds”.

The record behind these values is doi:10.1101/2023.12.13.571451 (bioRxiv, 2023).
